Substrate in the series: O=[N+]([O-])c1ccccc1O[C@@H]1O[C@H](COP(=O)(O)O)[C@H](O)[C@H](O)[C@H]1O
Description: purified protein. It is filed as biochemical, Lacticaseibacillus casei. The settings on record: activity assay in 100 mM Tris-HCl pH 7.0, 37 °C, kinetics as in cited earlier work.

B1: phospho-β-galactosidase LacG; 6x(His)LacG (Lacticaseibacillus casei BL23) (protein)
chain: MSKQLPQDFVMGGATAAYQVEGATKEDGKGRVLWDDFLDKQGRFKPDPAADFYHRYDEDLALAEKYGHQVIRVSIAWSRIFPDGAGEVEPRGVAFYHKLFADCAAHHIEPFVTLHHFDTPERLHEAGDWLSQEMLDDFVAYAKFCFEEFSEVKYWITINEPTSMAVQQYTSGTFPPAESGRFDKTFQAEHNQMVAHARIVNLYKSMQLGGQIGIVHALQTVYPYSDSAVDHHAAELQDALENRLYLDGTLAGEYHQETLALVKEILDANHQPMFQSTPQEMKAIDEAAHQLDFVGVNNYFSKWLRAYHGKSETIHNGDGTKGSSVARLQGVGEEKLPDGIETTDWDWSIYPRGMYDILMRIHNDYPLVPVTYVTENGIGLKESLPENATPDTVIEDPKRIDYVKKYLSAMADAIHDGANVKGYFIWSLQDQFSWTNGYSKRYGLFFVDFPTQNRYIKQSAEWFKSVSETHIIPD
notes: full coding region in pQE80 (BamHI/PstI), 6xHis tag (N-terminal by vector), E. coli BE50 host, purified; 55 kDa, calculated tagged mass 55,305 Da
With B1, the Km turned out to be 3000 µM.

As usually defined, the Km is the substrate concentration at which the rate is half of its maximum.

(Values after PMC5940811, “The lactose operon from Lactobacillus casei is involved in the transport and metabolism of the human milk oligosaccharide core-2 N-acetyllactosamine” (Scientific Reports, 2018).)
